Reference: patent publication US20150104459A1 (published 2015)

Target: recombinant soluble homotrimeric HA, A/common magpie/Hong Kong/5052/07 (H5N1) (influenza A virus A/common magpie/Hong …)
Experiment: microarray, trimeric HA, transfection supernatant

Row | Binder | Trimeric HA Binding RLU [RLU]
1 | TCN-556 (5089_K12) (antibody, V domains shown) VH: QVQLVQSGAEVKKPGASVKVSCKASGYTFIGYDMHWVRQAPGQGLEWMGWINAKRGGTNYAQKFQGRVTMTRDTSISTAYMELNSLRSDDTAVYYCARGVGSRTTIFGVLNPEFDYWGQGTLVTVSS VL: QSALTQPPSASGSPGQSVTISCTGSSSDVGGYDYVSWYQQHPGKAPKLLIYEVTKRPSGVPDRFSGSKSGNTASLTVSGLQAEDEADYYCSSYAGNYNHVFGPGTKVTVL | 20100
2 | TCN-560 (5084_P10) (antibody, V domains shown) VH: EVQLVESGGGLVQPGGSLRLSCAASGFIFRNYWMSWVRQAPGKGLEWVANIKQDGREKYYVDSLRGRVNISRDNAENSLYLHMNSLRVEDTAVYFCARARMVVVTGDGFDVWGHGTMVTVSS VL: DIQMTQSPSSLSASVGDRVTITCRASQNIKRYFNWYQQKPGKAPKLLIYAASNLENGVPSRFSGSGSGTDFTLTISSLQPEDFATYYCQQSFSKSWTFGQGTNVDIK | 30500
